Measurements: article PMC6821171

Molecular target: TF-LYAR-FL (FLAG) (human) (UniProt Q9NX58)
Experiment: EMSA
Details: EMSA: 10 mM Tris-HCl pH 7.4, 50 mM KCl, 1 mM DTT, 2.5 % (further components not shown in material), 20 µl, 30 min, room temperature

GGTATATCTTTCGCTCCGAGTCGGCATTTTGGGCCGCCGGGTTATTGCTGACACGCTGTCCTCTGGCGACCTGTCGTC (double strand) [H0 rDNA promoter probe (H0-BT)]
binding: no binding
